Measured values as given in the supplement of paper PMC10126150.
± gives the standard deviation of the averaged measurements.

Test system: ATP
Experiment: switch fluorescence ratio, 500 uM ATP over buffer (Cy3 cluster intensity, sum of 5 cycles each) (fold (ratio)); higher = stronger signal-on switching upon ATP binding; sequences stand for … in TCGTCGGCAGCGTCAGATGTGTATAAGAGACAGTTTTTTTTTTTTTTTTTTTTTTTTT…TC
Settings: aptamer strand: ATP DNA aptamer (quencher-CACCTGGGGGAGTATTGCGGAGGAAGG + anchor), 100 nM annealed; ATP concentration: 500 uM
Summary of the method: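 Cy3-labelled switching-strand clusters on a modified Illumina MiSeq flow-cell were annealed to 100 nM quencher-labelled ATP aptamer, imaged in selection buffer, then imaged after 15 min with 500 uM ATP at 22 °C. Five buffer/ATP cycles ran, with NaOH stripping and re-annealing between them. The fluorescence ratio is summed target-cycle over summed buffer-cycle Cy3 intensity per cluster, averaged per switch-domain sequence. Clusters outside 100-1000 RFU were excluded.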
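Note: ATP exposure 15 min at 22 °C before imaging.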

Point of comparison: GATAACGGGG, switch fluorescence ratio 0.972 ± 0.02. Against it:
- GAGGGTGCAT — within error, 0.987 ± 0.043
- GAGGGTTCCG — within error, 1.01 ± 0.026
- GAGGGTTGAA — within error, 0.999 ± 0.033
- GAGGTAAGTG — within error, 0.954 ± 0.024
- GAGGTACGTA — within error, 1.01 ± 0.027
- GAGGTAGCTA — higher, 1.03 ± 0.0051
- GAGGTAGGGA — within error, 1.06 ± 0.13
- GAGGTAGTCT — within error, 1.07 ± 0.14
- GAGGTCCACT — within error, 1.01 ± 0.044
- GAGGTCGGGC — within error, 0.94 ± 0.039
- GAGGTCTGTG — within error, 0.965 ± 0.018
- GAGGTGAAAT — within error, 1.01 ± 0.027
- GAGGTGACTG — higher, 1.01 ± 0.015
- GAGGTGAGTG — within error, 0.9921 ± 0.0066
- GAGGTGATAG — higher, 1.036 ± 0.0033
- GAGGTGTAGA — higher, 1.05 ± 0.022
- GAGGTGTAGG — within error, 1.01 ± 0.02
- GAGGTGTTCA — within error, 1.01 ± 0.02
- GAGGTTCCCG — within error, 0.984 ± 0.051
- GAGGTTCGGT — higher, 1.019 ± 0.0037
- GAGGTTGGGG — within error, 1.02 ± 0.059
- GAGGTTGTTT — within error, 0.977 ± 0.02
- GAGGTTTAGA — within error, 0.98753 ± 9.8e-05
- GAGGTTTGTA — within error, 0.974 ± 0.013
- GAGTAAGACA — within error, 0.99 ± 0.013
- GAGTAATGCG — within error, 0.943 ± 0.066
- GAGTACCACT — within error, 1.01 ± 0.078
- GAGTAGATGT — within error, 0.983 ± 0.011
- GAGTAGGGTA — higher, 1.01 ± 0.016
- GAGTATATGT — within error, 0.9998 ± 0.0099
- GAGTATCTAG — within error, 0.986 ± 0.038
- GAGTATGTGG — within error, 0.9516 ± 0.0029
- GAGTCAATTT — higher, 1.0118 ± 0.00063
- GAGTCACGTC — within error, 0.9468 ± 0.0088
- GAGTCATGCG — within error, 0.911 ± 0.093
- GAGTCATTAA — within error, 0.96 ± 0.041
- GAGTCCAGGC — within error, 1.07 ± 0.16
- GAGTCCCTGA — within error, 0.993 ± 0.032
- GAGTCCTCTT — within error, 1.01 ± 0.032
- GAGTCGGCGC — within error, 0.983 ± 0.1
- GAGTCGGTTA — within error, 0.98 ± 0.045
- GAGTCTCTTA — within error, 1 ± 0.027
- GAGTCTGGT — within error, 0.981 ± 0.036
- GAGTGAAAGT — within error, 0.99 ± 0.023
- GAGTGAGCAG — within error, 0.976 ± 0.022
- GAGTGAGGGT — within error, 0.987 ± 0.031
- GAGTGCAATT — higher, 1.19 ± 0.034
- GAGTGCAGGG — within error, 0.994 ± 0.03
- GAGTGCAGGT — higher, 1.01 ± 0.015
- GAGTGCCGGG — higher, 1.03 ± 0.016
- GAGTGCGACG — higher, 1.08 ± 0.078
- GAGTGGACTC — within error, 0.999 ± 0.029
- GAGTGGGGA — within error, 1.03 ± 0.04
- GAGTGGGGTA — within error, 1 ± 0.011
- GAGTGGTCGC — higher, 1.002 ± 0.0014
- GAGTGTAAGA — within error, 1 ± 0.034
- GAGTGTCCGG — within error, 0.982 ± 0.025
- GAGTGTGACT — within error, 0.97 ± 0.055
- GAGTGTGCGC — within error, 1.02 ± 0.03
- GAGTGTGCGT — within error, 0.975 ± 0.036
- GAGTGTTCGG — within error, 0.988 ± 0.042
- GAGTGTTCTT — within error, 0.977 ± 0.01
- GAGTGTTTAG — higher, 1.01 ± 0.016
- GAGTTACGGG — within error, 1.01 ± 0.072
- GAGTTCAGTA — within error, 0.975 ± 0.034
- GAGTTCATAG — within error, 1 ± 0.013
- GAGTTCGGGA — within error, 1.02 ± 0.029
- GAGTTGAAAA — within error, 0.9868 ± 0.001
- GAGTTGGTTT — within error, 1 ± 0.022
- GAGTTGTGGG — within error, 0.993 ± 0.014
- GAGTTGTGTA — within error, 0.985 ± 0.035
- GAGTTGTTAT — within error, 0.973 ± 0.037
- GAGTTGTTGT — within error, 0.996 ± 0.018
- GAGTTTAAAT — higher, 1.02 ± 0.022
- GAGTTTCAGA — higher, 1.033 ± 0.0033
- GAGTTTCAGT — within error, 1.04 ± 0.073
- GAGTTTGTTA — within error, 1.01 ± 0.07
- GAGTTTGTTT — within error, 0.99 ± 0.044
- GAGTTTTGGC — within error, 0.952 ± 0.09
- GATAAAGTAA — within error, 0.983 ± 0.015
- GATAAATGTA — within error, 0.9808 ± 0.0084
- GATAAGGGGA — higher, 1.03 ± 0.023
- GATAATAGGC — within error, 1 ± 0.06
- GATAATATAA — higher, 1.02 ± 0.026
